Here are results for two molecules from patent US6670136 (TRUSTEES OF COLUMBIA UNIVERSITY IN THE CITY OF NEW YORK, dated 2003).

Test [1] deals with cellular RAGE on human cells (HUVEC, Molt-4, PBMC, Jurkat) (human, UniProt Q15109 23-404). Briefly: cell-based or functional assay.
Test [2] deals with T1, human soluble RAGE (sRAGE), prepared from a baculovirus expression system (human, UniProt Q15109 23-342).
T1 construct: extracellular domain; Murine sRAGE was used only in the in vivo studies; also called purified RAGE; immobilized RAGE
Briefly: binding to immobilized RAGE in culture wells. As to the method: (Panel C–D) EN-RAGE binds purified RAGE (C) and BAECs (D): In C, human soluble RAGE was immobilized onto the wells of plastic dishes and in D, confluent BAECs were cultured onto tissue culture-treated wells. […] Where indicated, radiolabelled EN-RAGE (100 nM) was incubated with the indicated amount of excess sRAGE two hours prior to binding assay, or wells were preincubated for two hours with the indicated concentration of rabbit nonimmune IgG, or polyclonal monospecific rabbit anti-EN-RAGE IgG or anti-RAGE: IgG prior to binding assay and results reported as % maximal specific binding ±SD of the mean. These experiments were performed at least five times with analogous results.
(§1) Radioligand binding assays were performed in 96-well dishes to which had been adsorbed either purified human RAGE (5 μg/well) or bovine aortic endothelial cells. In the former case, after adsorption of human soluble RAGE to the plastic dish in carbonate/bicarbonate buffer (pH 9.3) overnight, wells were then washed with PBS containing Tween 20 (0.05%). Unoccupied binding sites on the plastic wells were blocked by incubation with PBS containing calcium/magnesium and bovine serum albumin (1%) for two hours at 37° C. […] Solution was then aspirated from the wells and counted in a gamma counter (LKB, Gaithersburg, Md.).

For test [3], the target named is T1, human soluble RAGE (sRAGE), prepared …. Put plainly: radioligand binding: 125I-EN-RAGE on human sRAGE adsorbed to plastic wells, with or without 50-fold unlabelled EN-RAGE. As to the method: (§2) Where indicated, radiolabelled EN-RAGE (100 nM) was incubated with the indicated amount of excess sRAGE two hours prior to binding assay, or wells were preincubated for two hours with the indicated concentration of rabbit nonimmune IgG, or polyclonal monospecific rabbit anti-EN-RAGE IgG or anti-RAGE: IgG prior to binding assay and results reported as % maximal specific binding ±SD of the mean. These experiments were performed at least five times with analogous results.
as §1, with “C. After aspiration of the wells, a radioligand binding assay was performed in the presence of the indicated concentration of radiolabelled EN-RAGE ± an 50-fold molar excess of unlabelled EN-RAGE in PBS containing calcium/magnesium and BSA, 0.2%, for 3 hrs at 37° C.” for “C.”, “Md.). […]” for “Md.).”

The target in test [4] is T2, RAGE on bovine aortic endothelial cells (BAEC RAGE) (bovine, UniProt Q28173 23-416).
T2 construct: whole, on cells; The target is endogenous RAGE on confluent BAEC monolayers; also called BAECs; endothelial (EC) RAGE
T2 sequence (looked up): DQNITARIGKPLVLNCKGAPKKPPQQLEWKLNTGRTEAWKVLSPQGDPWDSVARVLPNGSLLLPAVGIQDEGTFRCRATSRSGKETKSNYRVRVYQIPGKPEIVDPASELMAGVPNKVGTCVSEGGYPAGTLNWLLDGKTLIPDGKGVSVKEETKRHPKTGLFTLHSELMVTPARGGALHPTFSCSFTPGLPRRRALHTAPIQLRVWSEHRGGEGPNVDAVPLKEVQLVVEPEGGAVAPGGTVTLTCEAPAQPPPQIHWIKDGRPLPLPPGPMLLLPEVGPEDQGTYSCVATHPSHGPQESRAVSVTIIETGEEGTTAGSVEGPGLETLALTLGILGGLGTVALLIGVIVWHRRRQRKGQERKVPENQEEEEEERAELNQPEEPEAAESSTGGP
Put plainly: binding to endothelial cell RAGE in culture wells. As to the method:
as §2
as §1, with “C. After aspiration of the wells, a radioligand binding assay was performed in the presence of the indicated concentration of radiolabelled EN-RAGE ± an 50-fold molar excess of unlabelled EN-RAGE in PBS containing calcium/magnesium and BSA, 0.2%, for 3 hrs at 37° C.” for “C.”, “Md.). […]” for “Md.).”

The target in test [5] is T3, RAGE on macrophage-like BV2 cells (macrophage (MP) RAGE) (UniProt Q62151 23-402, limits assumed).
T3 construct: whole, on cells; also called BV-2 macrophages
Put plainly: binding to macrophage RAGE in culture wells.

Test [6] addresses T2, RAGE on bovine aortic endothelial cells …. Briefly: radioligand binding: 125I-EN-RAGE on confluent bovine aortic endothelial cells. As to the method: as §2
as §1, with “C. After aspiration of the wells, a radioligand binding assay was performed in the presence of the indicated concentration of radiolabelled EN-RAGE ± an 50-fold molar excess of unlabelled EN-RAGE in PBS containing calcium/magnesium and BSA, 0.2%, for 3 hrs at 37° C.” for “C.”, “Md.). […]” for “Md.).”

Chain of cellular RAGE on human cells (HUVEC, Molt-4, PBMC, Jurkat) (Q15109 23-404): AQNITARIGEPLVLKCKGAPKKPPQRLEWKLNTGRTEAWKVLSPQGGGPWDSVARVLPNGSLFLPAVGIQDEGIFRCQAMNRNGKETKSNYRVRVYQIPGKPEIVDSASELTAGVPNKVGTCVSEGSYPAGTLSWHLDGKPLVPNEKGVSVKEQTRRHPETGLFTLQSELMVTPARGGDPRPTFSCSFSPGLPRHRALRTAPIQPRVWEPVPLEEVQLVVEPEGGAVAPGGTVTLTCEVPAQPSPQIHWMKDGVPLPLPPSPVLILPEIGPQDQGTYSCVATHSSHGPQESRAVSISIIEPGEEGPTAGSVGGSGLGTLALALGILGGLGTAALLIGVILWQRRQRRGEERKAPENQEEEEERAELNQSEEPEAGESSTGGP
T1 sequence (Q15109 23-342): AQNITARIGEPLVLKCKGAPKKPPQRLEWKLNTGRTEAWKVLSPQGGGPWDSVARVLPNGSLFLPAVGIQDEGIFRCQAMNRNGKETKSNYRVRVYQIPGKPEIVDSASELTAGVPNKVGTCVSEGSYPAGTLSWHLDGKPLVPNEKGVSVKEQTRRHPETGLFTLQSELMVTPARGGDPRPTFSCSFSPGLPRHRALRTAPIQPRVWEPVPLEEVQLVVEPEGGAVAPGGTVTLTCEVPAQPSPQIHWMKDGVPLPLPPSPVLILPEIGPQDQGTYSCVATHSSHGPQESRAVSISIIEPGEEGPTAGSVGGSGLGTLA
T3 sequence (Q62151 23-402 limits assumed): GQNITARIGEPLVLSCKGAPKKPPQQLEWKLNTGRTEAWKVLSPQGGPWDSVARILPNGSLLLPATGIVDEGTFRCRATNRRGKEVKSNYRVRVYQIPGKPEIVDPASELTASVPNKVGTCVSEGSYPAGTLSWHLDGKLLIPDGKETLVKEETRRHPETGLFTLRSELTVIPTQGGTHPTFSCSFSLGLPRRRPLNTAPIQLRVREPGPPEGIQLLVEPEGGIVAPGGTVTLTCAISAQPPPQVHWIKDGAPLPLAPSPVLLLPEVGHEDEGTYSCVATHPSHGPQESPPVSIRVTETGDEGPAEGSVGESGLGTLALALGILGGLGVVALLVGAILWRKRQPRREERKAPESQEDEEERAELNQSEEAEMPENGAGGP

B1: purified S100B from human brain (Calbiochem-Novabiochem) (ligand, UniProt P04271 2-92, looked up)
chain: SELEKAMVALIDVFHQYSGREGDKHKLKKSELKELINNELSHFLEEIKEQEVVDKVMETLDNDGDGECDFQEFMAFVAMVTTACHEFFEHE
For the molecule B1, the “nuclear translocation of NF-kB in HUVEC (EMSA)” value in test [1] is approximately 13.9 fold.

B2: EN-RAGE (Extracellular Novel RAGE binding protein), recombinant bovine, expressed in Sf9 cells (ligand)
chain: TKLEDHLEGIINIFHQYSVRVGHFDTLNKRELKQLITKELPKTLQNTKDQPTIDKIFQDLDADKDGAVSFEEFVVLVSRVLKTAHIDIHK
notes: Recombinant protein made from a bovine lung cDNA in baculovirus/Sf9; In the cell assays it was unlabelled; also called radiolabelled EN-RAGE
With B2, the Kd is approximately 75 nM in test [2]; approximately 91 nM in test [3]; approximately 75 nM in test [4]; approximately 75 nM in test [5]; approximately 90.3 nM in test [6]. In addition, the “adhesion of Molt-4 cells to cultured ECs” value in test [1] turned out to be 7 fold. For the same molecule, the “expression of cell-surface VCAM-1 on cultured ECs” value in test [1] was found to be 4.3 fold. Also, in test [1], the “nuclear NF-kB in HUVEC (EMSA, densitometry)” value is approximately 5 fold.
